Experimental data: US10772928B2, “Modulation and detection of a neuronal alternative splicing regulatory network for treatment and diagnosis of neurological disorders” (The Governing Council of the University of Toronto, priority 2014, dated 2020)

T1: nSR100 (Mus musculus, UniProt Q8BKA3)
T1 construct: host or cells: mouse N2A cells
T1 sequence (Q8BKA3 1-608): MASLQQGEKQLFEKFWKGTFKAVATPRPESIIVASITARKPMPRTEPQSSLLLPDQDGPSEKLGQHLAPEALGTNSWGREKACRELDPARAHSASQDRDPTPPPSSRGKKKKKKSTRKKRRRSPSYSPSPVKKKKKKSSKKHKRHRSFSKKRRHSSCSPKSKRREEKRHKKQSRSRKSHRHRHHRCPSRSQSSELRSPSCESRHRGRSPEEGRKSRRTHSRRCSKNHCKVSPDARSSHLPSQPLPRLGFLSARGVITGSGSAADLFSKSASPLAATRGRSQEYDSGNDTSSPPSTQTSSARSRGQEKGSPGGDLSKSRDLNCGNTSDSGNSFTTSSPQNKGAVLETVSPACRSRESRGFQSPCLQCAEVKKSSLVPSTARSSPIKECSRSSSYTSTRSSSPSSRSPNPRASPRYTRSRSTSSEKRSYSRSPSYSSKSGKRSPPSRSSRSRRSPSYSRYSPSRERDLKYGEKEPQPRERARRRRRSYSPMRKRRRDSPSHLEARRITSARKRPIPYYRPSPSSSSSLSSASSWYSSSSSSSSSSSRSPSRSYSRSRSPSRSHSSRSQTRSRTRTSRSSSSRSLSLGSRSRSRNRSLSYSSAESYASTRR

B1: Acin1 (protein, UniProt Q9JIX8 1-1338, looked up)
Apoptotic chromatin …: MWGRKRPNSSGETRGILSGNRGVDYGSGRGQSGPFEGRWRKLPKMPEAVGTDPSTSRKMAELEEVTLDGKPLQALRVTDLKAALEQRGLAKSGQKSALVKRLKGALMLENLQKHSTPHAAFQPNSQIGEEMSQNSFIKQYLEKQQELLRQRLEREAREAAELEEASAESEDEMTHPEGVASLLPPDFQSSLNRPELELSTHSPRKSSSFSEEKGESDDEKPRKGERRSSRVRQAKSKLPEYSQTAEEEEDQETPSRNLRVRADRNLKIEEEEEEEEEEEDDDDEEEEEVDEAQKSREAEAPTLKQFEDEEGEERTRAKPEKVVDEKPLNIRSQEKGELEKGGRVTRSQEEARRSHLARQQQEKETQIVSLPQEENEVKSSQSLEEKSQSPSPPPLPEDLEKAPVVLQPEQIVSEEETPPPLLTKEASSPPTHIQLQEEMEPVEGPAPPVLIQLSPPNTDAGAREPLASPHPAQLLRSLSPLSGTTDTKAESPAGRVSDESVLPLAQKSSLPECSTQKGVESEREKSAPLPLTVEEFAPAKGITEEPMKKQSLEQKEGRRASHALFPEHSGKQSADSSSSRSSSPSSSSSPSRSPSPDSVASRPQSSPGSKQRDGAQARVHANPHERPKMGSRSTSESRSRSRSRSRSASSSSRKSLSPGVSRDSNTSYTETKDPSCGQEAAAPSGPQLQVLEPKEKAPTFSASVRGRHLSHPEPEQQHVIQRLQPEQGSPKKCEAEEAEPPAATQPQTSETQISHLLESERTHHTVEEKEEVTMDTSENRPENEVPEPPLPVADQVSNDERPEGGAEEEEKKESSMPKSFKRKISVVSATKGVQAGNSDTEGGQPGRKRRWGASTAATQKKPSISITTESLKSLIPDIKPLAGQEAVVDLHADDSRISEDETERNGDDGTHDKGLKICRTVTQVVPAEGQENGQREEEEEKEPEAELPAPPQVSVEVALPPPVEHEVKKVTLGDTLTRRSISQQKSGVSITIDDPVRTAQVPSPPRGKISNIVHISNLVRPFTLGQLKELLGRTGTLVEEAFWIDKIKSHCFVTYSTVEEAVATRTALHGVKWPQSNPKFLCADYAEQDELDYHRGLLVDRPSETKAEEQGAPRPLHPPPPPPVQPPPHPRAEQREQERAVREQWAEREREMERRERTRSEREWDRDKVREGPRSRSRSRDRRRKERAKSKEKKSEKKEKAQEEPPAKLLDDLFRKTKAAPCIYWLPLTESQIVQKEAEQAERAKEREKRRKEREEEEQKEREKEAERERNRQLEREKRREHSRERERDRERERDRGDRERERERDRDRGRERDRRDTKRHSRSRSRSTPVRDRGGRR
B2: Csnk1d (protein, UniProt Q9DC28 1-415, looked up)
Casein kinase I isoform delta: MELRVGNRYRLGRKIGSGSFGDIYLGTDIAAGEEVAIKLECVKTKHPQLHIESKIYKMMQGGVGIPTIRWCGAEGDYNVMVMELLGPSLEDLFNFCSRKFSLKTVLLLADQMISRIEYIHSKNFIHRDVKPDNFLMGLGKKGNLVYIIDFGLAKKYRDARTHQHIPYRENKNLTGTARYASINTHLGIEQSRRDDLESLGYVLMYFNLGSLPWQGLKAATKRQKYERISEKKMSTPIEVLCKGYPSEFATYLNFCRSLRFDDKPDYSYLRQLFRNLFHRQGFSYDYVFDWNMLKFGASRAADDAERERRDREERLRHSRNPATRGLPSTASGRLRGTQEVAPPTPLTPTSHTANTSPRPVSGMERERKVSMRLHRGAPVNVSSSDLTGRQDTSRMSTSQIPGRVASSGLQSVVHR
B3: P00761 (protein, UniProt P00761 1-231, looked up)
chain: FPTDDDDKIVGGYTCAANSIPYQVSLNSGSHFCGGSLINSQWVVSAAHCYKSRIQVRLGEHNIDVLEGNEQFINAAKIITHPNFNGNTLDNDIMLIKLSSPATLNSRVATVSLPRSCAAAGTECLISGWGNTKSSGSSYPSLLQCLKAPVLSDSSCKSSYPGQITGNMICVGFLEGGKDSCQGDSGGPVVCNGQLQGIVSWGYGCAQKNKPGVYTKVCNYVNWIQQTIAAN
modifications: full-length
B4: Gsk3b (protein, UniProt Q9WV60 1-420, looked up)
Glycogen synthase kinase-3 …: MSGRPRTTSFAESCKPVQQPSAFGSMKVSRDKDGSKVTTVVATPGQGPDRPQEVSYTDTKVIGNGSFGVVYQAKLCDSGELVAIKKVLQDKRFKNRELQIMRKLDHCNIVRLRYFFYSSGEKKDEVYLNLVLDYVPETVYRVARHYSRAKQTLPVIYVKLYMYQLFRSLAYIHSFGICHRDIKPQNLLLDPDTAVLKLCDFGSAKQLVRGEPNVSYICSRYYRAPELIFGATDYTSSIDVWSAGCVLAELLLGQPIFPGDSGVDQLVEIIKVLGTPTREQIREMNPNYTEFKFPQIKAHPWTKVFRPRTPPEAIALCSRLLEYTPTARLTPLEACAHSFFDELRDPNVKLPNGRDTPALFNFTTQELSSNPPLATILIPPHARIQAAASPPANATAASDTNAGDRGQTNNAASASASNST
B5: Snrpa (protein, UniProt Q62189 1-287, looked up)
U1 small nuclear …: MATIATMPVPETRANHTIYINNLNEKIKKDELKKSLYAIFSQFGQILDILVSRIMKMRGQAFVIFKEVTSATNALRSMQGFPFYDKPMRIQYAKTDSDIIAKMKGTYVERDRKREKRKPKSQETPAAKKAVQGGAAAPVVGAVQPVPGMPPMPQAPRIMHHMPGQPPYMPPPGMIPPPGLAPGQIPPGAMPPQQLMPGQMPPAQPLSENPPNHILFLTNLPEETNELMLSMLFNQFPGFKEVRLVPGRHDIAFVEFDNEVQAGAARDALQGFKITQNNAMKISFAKK
B6: U2af2 (protein, UniProt P26369 2-475, looked up)
Splicing factor U2AF 65 kDa …: SDFDEFERQLNENKQERDKENRHRKRSHSRSRSRDRKRRSRSRDRRNRDQRSASRDRRRRSKPLTRGAKEEHGGLIRSPRHEKKKKVRKYWDVPPPGFEHITPMQYKAMQAAGQIPATALLPTMTPDGLAVTPTPVPVVGSQMTRQARRLYVGNIPFGITEEAMMDFFNAQMRLGGLTQAPGNPVLAVQINQDKNFAFLEFRSVDETTQAMAFDGIIFQGQSLKIRRPHDYQPLPGMSENPSVYVPGVVSTVVPDSAHKLFIGGLPNYLNDDQVKELLTSFGPLKAFNLVKDSATGLSKGYAFCEYVDINVTDQAIAGLNGMQLGDKKLLVQRASVGAKNATLVSLPSTINQTPVTLQVPGLMSSQVQMGGHPTEVLCLMNMVLPEELLDDEEYEEIVEDVRDECSKYGLVKSIEIPRPVDGVEVPGCGKIFVEFTSVFDCQKAMQGLTGRKFANRVVVTKYCDPDSYHRRDFW
B7: Api5 (protein, UniProt O35841 1-504, looked up)
Apoptosis inhibitor 5: MPTVEELYRNYGILADATEQVGQHKDAYQVILDGVKGGTKEKRLAAQFIPKFFKHFPELADSAINAQLDLCEDEDVSIRRQAIKELPQFATGENLPRVADILTQLLQTDDSAEFNLVNNALLSIFKMDAKGTLGGLFSQILQGEDIVRERAIKFLSTKLKTLPDEVLTKEVEELILTESKKVLEDVTGEEFVLFMKILSGLKSLQTVSGRQQLVELVAEQADLEQAFSPSDPDCVDRLLQCTRQAVPLFSKNVHSTRFVTYFCEQVLPNLSTLTTPVEGLDIQLEVLKLLAEMSSFCGDMEKLETNLRKLFDKLLEYMPLPPEEAENGENAGNEEPKLQFSYVECLLYSFHQLGRKLPDFLTAKLNAEKLKDFKIRLQYFARGLQVYIRQLRLALQGKTGEALKTEENKIKVVALKITNNINVLIKDLFHIPPSYKSTVTLSWKPVQKVEIGQKRTSEDTSSGSPPKKSPGGPKRDARQIYNPPSGKYSSNLSNFNYERSLQGK

Biological target: T1, nSR100
Experiment: AP-MS nSR100 interaction partners from mouse N2A cells (Table 5)
Format: binding
Details: for AvgP (average of the SAINT scores) / MaxP (maximal SAINT score): bait Srrm4; for FoldChange between the prey Avg spectra of the bait and control purifications: bait Srrm4, 0.1 added to prevent division by 0; for AvgSpec (average number of spectra per replicate): bait Srrm4, 2 replicates; for Spectra (number of spectra for the prey in the purification of the bait): AP-MS; for SpecSum: bait Srrm4, sum of spectra over 2 replicates
[1] = bait Srrm4, biological replicate 1 (first number of the cell)
[2] = bait Srrm4, biological replicate 2 (second number of the cell)

Text: By applying affinity purification coupled to mass-spectrometry (AP-MS), several interaction nSR100 partner proteins were detected that provide insight into mechanisms of post-translational regulation of nSR100 levels.

Molecule	AvgP (average of the SAINT scores)	MaxP (maximal SAINT score)	FoldChange between the prey Avg spectra of the bait and control purifications	AvgSpec (average number of spectra per replicate)	Spectra (number of spectra for the prey in the purification of the bait) [1]	Spectra (number of spectra for the prey in the purification of the bait) [2]	SpecSum
B1	1	1	250	25	23	27	50
B2	1	1	55	5.5	7	4	11
B3	1	1	150	15	15|15	15|15	30
B4	1	1	65	6.5	6	7	13
B5	1	1	7.09	39	38	40	78
B6	1	1	4.83	111	108	114	222
B7	1	1	18	9	8	10	18
